Patent publication US5972599, “High affinity nucleic acid ligands of cytokines” (NeXstar Pharmaceuticals, Inc.)

B1: IL-10 ligand 10 (ssRNA)
RNA: GGGAGACAAGAAUAAACGCUCAACUGAGAUCUCUAAGAGCCUGGACUCAGCUCCGACUGACCUUCGACAGGAGGCUCACAACAGGC
modifications: 2'-F C and U
B2: IL-10 ligand 56 (ssRNA)
RNA: GGGAGACAAGAAUAAACGCUCAAUCUCUAAGAGCCUGGAUGUCGAGGGGCCAUUUCGCACGCUUCGACAGGAGGCUCACAACAGGC
modifications: 2'-F C and U
B3: IL-10 ligand 55 (ssRNA)
RNA: GGGAGACAAGAAUAAACGCUCAAACAUCGUAUAAUCUCUAAGAGCCUGGAUAUACGAUGAAUUCGACAGGAGGCUCACAACAGGC
modifications: 2'-F C and U
B4: IL-10 ligand 15 (ssRNA)
RNA: GGGAGACAAGAAUAAACGCUCAAUCUCUAUGAGCCUGGAUCGACGAACUCUCUACGGGCUGUGUUCGACAGGAGGCUCACAACAGGC
modifications: 2'-F C and U
B5: IL-10 ligand 54 (ssRNA)
RNA: GGGAGACAAGAAUAAACGCUCAAAUCCCAAUCUCUAAGAGCCUGGAUGACAAUCGCAUUGGGCUUCGACAGGAGGCUCACAACAGGC
modifications: 2'-F C and U
B6: IL-10 ligand 64 (ssRNA)
RNA: GGGAGACAAGAAUAAACGCUCAAACAUCGUAUAACUCUAAGCGCCUGGAUAUACGAUGAAUUCGACAGGAGGCUCACAACAGGC
modifications: 2'-F C and U
B7: IL-10 ligand 64b (ssRNA)
RNA: GGGAGACAAGAAUAAACGCUCAAACAUCGUAUAACUCUAAGUGCCUGGAUAUACGAUGAAUUCGACAGGAGGCUCACAACAGGC
modifications: 2'-F C and U
B8: IL-10 ligand 64a (ssRNA)
RNA: GGGAGACAAGAAUAAACGCUCAAACAUCGUAUAACUCUAAGAGCCUGGAUAUACGAUGAAUUCGACAGGAGGCUCACAACAGGC
modifications: 2'-F C and U
B9: IL-10 ligand 6 (ssRNA)
RNA: GGGAGACAAGAAUAAACGCUCAAAUCCCAAUCUCUAAGAGCCUGGAUAAGAAUGCGCAUUGGGCUUCGACAGGAGGCUCACAACAGGC
modifications: 2'-F C and U
B10: IL-10 ligand 57 (ssRNA)
RNA: GGGAGACAAGAAUAAACGCUCAAAUCCCAAUCUCUAAGAGCCUGGAUGAGAAUGCGCAUUGGGCUUCGACAGGAGGCUCACAACAGGC
modifications: 2'-F C and U
B11: IL-10 ligand 34 (ssRNA)
RNA: GGGAGACAAGAAUAAACGCUCAACUGAGAUCUCUAAGAGCCUGGACUCAGCUCCGAUUGAUCCUUCGACAGGAGGCUCACAACAGGC
modifications: 2'-F C and U
B12: IL-10 ligand 41 (ssRNA)
RNA: GGGAGACAAGAAUAAACGCUCAACUGAGAUCUCUAAGAGCCUGGACUCAGCUCCGAUUGAACCUUCGACAGGAGGCUCACAACAGGC
modifications: 2'-F C and U
B13: IL-10 ligand 68 (ssRNA)
RNA: GGGAGACAAGAAUAAACGCUCAAACAUCGUAUAAUCUCUCUAAGAGCCUGGAAUACGAUGAAUUCGACAGGAGGCUCACAACAGGC
modifications: 2'-F C and U
B14: IL-4 2'F/NH2-8 (ssRNA)
RNA: GGGAGACAAGAAUAAACGCUCAAGUCGGAGCGAUGGAGAGCCACGAUAUACGGUCUGUGCGCUUCGACAGGAGGCUCACAACAGGC
modifications: 2'-F C, 2'-NH2 U
B15: IL-4 2'F/NH2-25 (ssRNA)
RNA: GGGAGACAAGAAUAAACGCUCAAAGAGCCGUUUUGGGGACCCACAGUAACGGGUUUAUGGUAUUCGACAGGAGGCUCACAACAGGC
modifications: 2'-F C, 2'-NH2 U
B16: IL-4 2'F/NH2-41 (ssRNA)
RNA: GGGAGACAAGAAUAAACGCUCAAAGUAACGUGGGGAGCCACACGUAAUACGGCACUAAUUCGACAGGAGGCUCACAACAGGC
modifications: 2'-F C, 2'-NH2 U

Target: IL-10 (Homo sapiens, UniProt P22301 P22301:19-178)
Experiment: filter; group statement, at 250 nM IL-10
Conditions: tags: Bachem or R&D Systems; chain copies: 2

IL-10, sequence (P22301 19-178, one chain of several): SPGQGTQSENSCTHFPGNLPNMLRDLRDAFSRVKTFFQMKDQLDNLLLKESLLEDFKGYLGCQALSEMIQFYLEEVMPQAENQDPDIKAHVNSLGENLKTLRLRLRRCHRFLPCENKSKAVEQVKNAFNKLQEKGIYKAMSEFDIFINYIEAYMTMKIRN

Binding result, binds:
B1
B2
B3
B4
B5
B6
B7
B8
B9
B10
B11
B12
B13

Target: IL-4 (Homo sapiens, UniProt P05112 P05112:25-153)
Experiment: filter; group 1 stated to bind IL-4
Conditions: tags: R&D Systems

IL-4, sequence (P05112 25-153, one chain of several): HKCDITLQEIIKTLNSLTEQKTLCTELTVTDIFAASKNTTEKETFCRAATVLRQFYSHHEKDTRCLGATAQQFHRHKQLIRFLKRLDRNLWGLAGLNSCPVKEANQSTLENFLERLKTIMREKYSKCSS

Binding result, binds:
B14
B15
B16
